These are literature values, as cited in PMC7801465.

By pKd is commonly meant the negative decadic logarithm of the Kd, by convention in mol/L.

In this data set the target is SARS-CoV-2 spike (SARS-CoV-2) (UniProt P0DTC2).

pKd: −log10 of the molar value.

Turning to Basigin (from UniProt P35613), the pKd was 6.73.
